Test results taken from patent CN108610419A.

Biological target: 重组人HER2蛋白的胞外区 (rHER2-ECD) (human) (UniProt P04626)
Assay: SPR (BIACORE3000), rHER2-ECD coupled to CM5 chip, antibody in flow, 25 °C

Binder	Kd
hu14C5B (antibody, V domains shown, not shown: a dimerising Fc or GST) VH: EVQLVESGGGLVQPGGSLRLSCAASGYSFTMYNINWVKQAPGKGLEWIGNLDAYYGGSNYNPKFKDKATLSRDNSKNTAYLQMNSLRAEDTAVYYCTRILWSRDFYTMDYWGQGTLVTVSS VL: DIQVTQSPSSLSASVGDRVTITCRTSQDISNYLHWYQQKPGKAPKLLIYSTSTGHSGVPSRFSGSGSGTDFTLTISSLQPEDFATYFCQQSYTLAYTFGQGTKVEIKR	0.242 nM
hu14C5B-2 (antibody, V domains shown, not shown: a dimerising Fc or GST) VH: EVQLVESGGGLVQPGGSLRLSCAASGFTFSLYNINWVKQAPGKGLEWIGNLDPYYGGSNYNPKFKDKATLSRDNSKNTAYLQMNSLRAEDTAVYYCTRILWSRDYYTMDYWGQGTLVTVSS VL: DIQVTQSPSSLSASVGDRVTITCRTSQDISNYLHWYQQKPGKAPKLLIYSTSTAHSGVPSRFSGSGSGTDFTLTISSLQPEDFATYFCQQSYTLLYTFGQGTKVEIKR	31.5 nM
hu14C5B-6 (antibody, V domains shown, not shown: a dimerising Fc or GST) VH: EVQLVESGGGLVQPGGSLRLSCAASGFTFSLYNINWVKQAPGKGLEWIGNLDPYYGGSNYNPKFKDKATLSRDNSKNTAYLQMNSLRAEDTAVYYCTRILWSRDYYTMDYWGQGTLVTVSS VL: DIQVTQSPSSLSASVGDRVTITCRTSQDISNYLHWYQQKPGKAPKLLIYSTSTLHSGVPSRFSGSGSGTDFTLTISSLQPEDFATYFCQQSYTLPYTFGQGTKVEIKR	4.62 nM

More lines, now with the values ahead:

Kd	Binder
0.186 nM	hu14C5B-5 (antibody, human IgG1, kappa, V domains shown) VH: EVQLVESGGGLVQPGGSLRLSCAASGFTFSAYNINWVKQAPGKGLEWIGNLDPYYGGSNYNPKFKDKATLSRDNSKNTAYLQMNSLRAEDTAVYYCTRILWSRDYYTMDYWGQGTLVTVSS VL: DIQVTQSPSSLSASVGDRVTITCRTSQDISNYLHWYQQKPGKAPKLLIYSTSTLHSGVPSRFSGSGSGTDFTLTISSLQPEDFATYFCQQSYTLPYTFGQGTKVEIKR
8.53 nM	hu14C5B-1 (antibody, V domains shown, not shown: a dimerising Fc or GST) VH: EVQLVESGGGLVQPGGSLRLSCAASGFTFSAYNINWVKQAPGKGLEWIGNLDPYYGGSNYNPKFKDKATLSRDNSKNTAYLQMNSLRAEDTAVYYCTRILWSRDYYTMDYWGQGTLVTVSS VL: DIQVTQSPSSLSASVGDRVTITCRTSQDISNYLHWYQQKPGKAPKLLIYSTSTAHSGVPSRFSGSGSGTDFTLTISSLQPEDFATYFCQQSYTLLYTFGQGTKVEIKR
0.295 nM	m14C5B (antibody, mouse IgG1, V domains shown) VH: EVQLQQSGPELEKPGASVKISCRTSGYSFTMYNINWVKQTNGKSLEWIGNLDAYYGGSNYNPKFKDKATLTVDISSNTAFMQLWSLTSEDSAVYYCTRILWSRDFYTMDYWGRGTSVTVSS VL: DIQVTQTSSSLSASLGDRVTITCRTSQDISNYLHWYQQTPDGTVKLLIYSTSTGHSGVPSRFSGSGSGTDYSLTISNLEQEDIATYFCQQSYTLAYTFGGGTKLEIKR
